Columns and labels:
[1] = biological target: T1, Strep/FLAG:ZEBRA (Epstein-Barr virus, UniProt P03206 149-245); test: EMSA; tightest; FP: PBS (137 mM NaCl, 2.7 mM KCl, 10 mM Na2HPO4, 1.8 mM KH2PO4) pH 7.4, 20 C, 10 nM duplex, 28 ng/ul herring testes DNA competitor; EMSA per cited ref with competitor DNA; settings: protein: recombinant; tags: StrepII/FLAG; chain copies: 2; 5' overhang 2 nt each end
[2] = biological target: T1, Strep/FLAG:ZEBRA; test: EMSA; between ZRE2 and meZRE2; slightly stronger than hemi C-2'; FP: PBS (137 mM NaCl, 2.7 mM KCl, 10 mM Na2HPO4, 1.8 mM KH2PO4) pH 7.4, 20 C, 10 nM duplex, 28 ng/ul herring testes DNA competitor; EMSA per cited ref with competitor DNA; settings: protein: recombinant; tags: StrepII/FLAG; chain copies: 2; 5' overhang 2 nt each end
[3] = biological target: GCN4 DBD WT (Saccharomyces cerevisiae, UniProt P03069 228-281); test: FP; apparent; FP: PBS (137 mM NaCl, 2.7 mM KCl, 10 mM Na2HPO4, 1.8 mM KH2PO4) pH 7.4, 20 C, 10 nM duplex, 28 ng/ul herring testes DNA competitor; EMSA per cited ref with competitor DNA; settings: protein: recombinant; tags: MBP; chain copies: 2; label: rhodamine 5' of strand 1; 5' overhang 1 nt each end
Chain of GCN4 DBD WT (P03069 228-281): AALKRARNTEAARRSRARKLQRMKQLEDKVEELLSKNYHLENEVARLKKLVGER

[4] = biological target: ZEBRA DBD WT (Epstein-Barr virus, UniProt P03206 175-236); test: FP; apparent, Hill n=2; FP: PBS (137 mM NaCl, 2.7 mM KCl, 10 mM Na2HPO4, 1.8 mM KH2PO4) pH 7.4, 20 C, 10 nM duplex, 28 ng/ul herring testes DNA competitor; EMSA per cited ref with competitor DNA; settings: protein: recombinant; tags: MBP; chain copies: 2; label: rhodamine 5' of strand 1; 5' overhang 1 nt each end
Chain of ZEBRA DBD WT (P03206 175-236): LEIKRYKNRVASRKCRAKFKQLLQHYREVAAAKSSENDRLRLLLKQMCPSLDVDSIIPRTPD

[5] = biological target: T1, Strep/FLAG:ZEBRA; test: EMSA; intermediate, similar to hemi-methylated sites; FP: PBS (137 mM NaCl, 2.7 mM KCl, 10 mM Na2HPO4, 1.8 mM KH2PO4) pH 7.4, 20 C, 10 nM duplex, 28 ng/ul herring testes DNA competitor; EMSA per cited ref with competitor DNA; settings: protein: recombinant; tags: StrepII/FLAG; chain copies: 2; 5' overhang 2 nt each end
[6] = biological target: T1, Strep/FLAG:ZEBRA; test: EMSA; between ZRE2 and meZRE2; FP: PBS (137 mM NaCl, 2.7 mM KCl, 10 mM Na2HPO4, 1.8 mM KH2PO4) pH 7.4, 20 C, 10 nM duplex, 28 ng/ul herring testes DNA competitor; EMSA per cited ref with competitor DNA; settings: protein: recombinant; tags: StrepII/FLAG; chain copies: 2; 5' overhang 2 nt each end

T1 sequence (P03206 149-245): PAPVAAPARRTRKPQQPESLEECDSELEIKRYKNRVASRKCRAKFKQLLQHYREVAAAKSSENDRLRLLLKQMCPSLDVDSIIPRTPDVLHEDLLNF

B1: meZRE2 (EMSA) (dsDNA)
DNA 1: ATAGCTTATGAGCGATTTTATC
DNA 2: ATGATAAAATCGCTCATAAGCT
modifications: 5mC at position 13 of strand 1 and 11 of strand 2
Does B1 bind [1]?
Result: binds

B2: hemi-me C1 ZRE2 (EMSA) (dsDNA)
DNA 1: ATAGCTTATGAGCGATTTTATC
DNA 2: ATGATAAAATCGCTCATAAGCT
modifications: 5mC at position 13 of strand 1
Does B2 bind [2]?
Result: binds

B3: AP-1 (FP) (dsDNA)
DNA 1: AGCTTATGAGTCATTTTAT
DNA 2: AATAAAATGACTCATAAGC
With B3 as the binder, how does the Kd [3] read?
The Kd was 77.9 ± 8.8 nM.

What about the Kd [4] of the same binder?
Its Kd is 271 ± 25 nM.

B4: oriLyt ZRE5 (EMSA) (dsDNA)
DNA 1: ATAGCTTATGTGCAATTTTATC
DNA 2: ATGATAAAATTGCACATAAGCT
Does B4 bind [5]?
Result: binds

B5: hemi-me C-2' ZRE2 (EMSA) (dsDNA)
DNA 1: ATAGCTTATGAGCGATTTTATC
DNA 2: ATGATAAAATCGCTCATAAGCT
modifications: 5mC at position 11 of strand 2
Does B5 bind [6]?
Result: binds

From PMC8754650, “Structural basis of DNA methylation-dependent site selectivity of the Epstein–Barr virus lytic switch protein ZEBRA/Zta/BZLF1”
